Results on four molecules are retold here after WO2021084104A1 (dated 2021).

Experiment [1] has as its target T1, full-length CD40 on cells (transfected CHO-S cells, Raji B-cell line, primary B cells) (human, UniProt P25942 21-277).
T1 construct: whole, on cells; also called target expressing cells
Nature of the experiment: flow cytometry on transfected and endogenously expressing cells (Fig. 6A).

The target in experiment [2] is T2, full-length OX40 on cells (transfected CHO-S cells, in vitro activated CD4 positive T-cells) (human, UniProt P43489 29-277).
T2 construct: whole, on cells; also called 0X40; target expressing cells
T2 sequence (looked up): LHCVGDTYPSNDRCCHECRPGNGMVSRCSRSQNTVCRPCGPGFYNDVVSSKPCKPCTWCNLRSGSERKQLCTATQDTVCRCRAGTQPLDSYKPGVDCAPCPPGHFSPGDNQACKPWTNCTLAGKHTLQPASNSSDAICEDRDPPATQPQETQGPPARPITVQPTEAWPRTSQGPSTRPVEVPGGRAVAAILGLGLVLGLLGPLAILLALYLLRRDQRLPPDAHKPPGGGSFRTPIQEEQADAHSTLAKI
Described as above.

The target of experiment [3] is T1, full-length CD40 on cells (transfected …). Kind of experiment: flow cytometry on overexpressing or endogenously expressing cells (Fig. 7). (In flow cytometry, cells or beads pass a laser one at a time.)
Experiment [4] deals with T2, full-length OX40 on cells (transfected …). Described as above.
For experiment [5], the target named is T3, full-length 4-1BB on cells (transfected CHO-S cells, in vitro activated CD4 positive T-cells) (human, UniProt Q07011 24-255).
T3 construct: whole, on cells; also called target expressing cells
Nature of the experiment: flow cytometry on transfected and endogenously expressing cells (Fig. 6C).

For experiment [6], the target named is T2, full-length OX40 on cells (transfected …). The description is as above.
Experiment [7] concerns the target T1, full-length CD40 on cells (transfected …). Nature of the experiment: flow cytometry on transfected and endogenously expressing cells (Fig. 6B).
Experiment [8] concerns the target T3, full-length 4-1BB on cells (transfected …). The experiment is described as above.

T1 sequence (P25942 21-277): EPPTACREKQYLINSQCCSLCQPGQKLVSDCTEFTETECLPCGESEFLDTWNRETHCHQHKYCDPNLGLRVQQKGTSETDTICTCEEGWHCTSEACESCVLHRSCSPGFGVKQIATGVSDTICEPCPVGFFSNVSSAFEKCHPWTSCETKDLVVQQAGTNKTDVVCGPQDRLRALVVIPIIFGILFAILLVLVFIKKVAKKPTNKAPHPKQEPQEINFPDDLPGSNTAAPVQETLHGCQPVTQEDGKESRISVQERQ
T3 sequence (Q07011 24-255): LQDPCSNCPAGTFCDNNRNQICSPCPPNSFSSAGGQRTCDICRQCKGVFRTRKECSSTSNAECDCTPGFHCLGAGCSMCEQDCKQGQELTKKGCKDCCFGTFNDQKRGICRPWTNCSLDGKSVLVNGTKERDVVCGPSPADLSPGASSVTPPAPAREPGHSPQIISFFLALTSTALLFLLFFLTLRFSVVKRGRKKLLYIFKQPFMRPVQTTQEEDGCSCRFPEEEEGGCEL

B1: tetra VH IgG #2 (VH-CH1=OX40 #2, VH-CL=CD40 #5) (bispecific antibody, V domains shown, not shown: a dimerising Fc or GST)
V domain 1: EVQLLESGGGLVQPGGSLRLSCAASGFTFSSYAMSWVRQAPGKGLEWVSGVSGGGGSTYYADSVRGRFTISRDNSKNTLYLQMNSLRAEDTAVYYCARGWDDINVWGQGTLVTVSS
V domain 2: EVQLLESGGGLVQPGGSLRLSCAASGFTFSSYTMDWVRQAPGKGLEWVSSISESGDTTDYADSVKGRFTISRDNSKNTLYLQMNSLRAEDTAVYYCARCSGGSCYSVNWGQGTLVTVSS
notes: Human IgG1 format with a VH in place of the VL; no VL domain; also called anti-CD40/OX40 tetra-VH IgG; OX40/CD40 bispecific antibody
For B1, the binding result in experiment [1] and in experiment [2] was “binds” in each case.

B2: tetra VH IgG #5 (VH-CH1=CD40 #5, VH-CL=OX40 #2) (bispecific antibody, V domains shown, not shown: a dimerising Fc or GST)
V domain 1: EVQLLESGGGLVQPGGSLRLSCAASGFTFSSYTMDWVRQAPGKGLEWVSSISESGDTTDYADSVKGRFTISRDNSKNTLYLQMNSLRAEDTAVYYCARCSGGSCYSVNWGQGTLVTVSS
V domain 2: EVQLLESGGGLVQPGGSLRLSCAASGFTFSSYAMSWVRQAPGKGLEWVSGVSGGGGSTYYADSVRGRFTISRDNSKNTLYLQMNSLRAEDTAVYYCARGWDDINVWGQGTLVTVSS
notes: Human IgG1 format with a VH in place of the VL; no VL domain; also called tetra VH lgG#5
For B2, the binding result in experiment [3] and in experiment [4] was “binds” each time.

B3: tetra VH IgG #20 (VH-CH1=41BB #4, VH-CL=OX40 #2) (bispecific antibody, V domains shown, not shown: a dimerising Fc or GST)
V domain 1: EVQLLESGGGLVQPGGSLRLSCAASGFTFGDYAMSWFRQAPGKGLEWVAVLSYDGSNTDYADSVKGRFTISRDNSKNTLYLQMNSLRAEDTAVYYCAKGPLILAAGNYWGQGTLVTVSS
V domain 2: EVQLLESGGGLVQPGGSLRLSCAASGFTFSSYAMSWVRQAPGKGLEWVSGVSGGGGSTYYADSVRGRFTISRDNSKNTLYLQMNSLRAEDTAVYYCARGWDDINVWGQGTLVTVSS
notes: Human IgG1 format with a VH in place of the VL; no VL domain; also called anti 0X40/41 BB tetra-VH IgG
Turning to B3, the binding result in experiment [5] and in experiment [6] was “binds” in each case.

B4: tetra VH IgG #4 (VH-CH1=41BB #4, VH-CL=CD40 #3) (bispecific antibody, V domains shown, not shown: a dimerising Fc or GST)
V domain 1: EVQLLESGGGLVQPGGSLRLSCAASGFTFGDYAMSWFRQAPGKGLEWVAVLSYDGSNTDYADSVKGRFTISRDNSKNTLYLQMNSLRAEDTAVYYCAKGPLILAAGNYWGQGTLVTVSS
V domain 2: EVQLLESGGGLVQPGGSLRLSCAASGFTFSSYAMSWVRQAPGKGLEWVSRLNSDGITATYADSVKGRFTISRDNSKNTLYLQMNSLRAEDTAVYYCARGKIPAIDHWGQGTLVTVSS
notes: Human IgG1 format with a VH in place of the VL; no VL domain; also called tetra VH lgG#4; anti-41 BB/CD40 tetra-VH IgG
As for B4, the binding result in experiment [7] and in experiment [8] was “binds” throughout.
